Measured values taken from patent US20170247476A1 (Amgen, published 2017).

What was measured:
[1] = molecular target: HER2 (human, UniProt P04626 23-1255); experiment: cell-based or functional assay
[2] = molecular target: T1, human CD3ε (human, UniProt P07766 22-207); experiment: FACS on T cells
T1 construct: On T cells CD3ε is part of the TCR-CD3 complex; also called T cells

B1: CD3ε(1-27)-MMP-2csV1-aCD3-aHER2-Xbody (bispecific antibody)
chain 1: not shown
chain 2: QDGNEEMGGITQTPYKVSISGTTVILTGGGGSGGGGSGGGGSGPLGIAGQEVQLVESGGGLVQPGGSLKLSCAASGFTFNSYAMNWVRQAPGKGLEWVARIRSKYNNYATYYADSVKGRFTISRDDSKNTAYLQMNNLKTEDTAVYYCVRHGNFGNSYVSWWAYWGQGTLVTVSSGGGGSGGGGSELVMTQTPSSLSASLGDRVTISCRASQDISNYLNWYQQKPDGTVKLLIYYTSRLHSGVPSRFSGSGSGTDYSLTISNLEQEDIATYFCQQGNTLPLTFGAGTKLEIKASTKGPSVFPLAPCSRSTSESTAALGCLVKDYFPEPVTVSWNSGALTSGVHTFPAVLQSSGLYSLSSVVTVPSSNFGTQTYTCNVDHKPSNTKVDKTVGGGGSAAAEPKSSDKTHTCPPCPAPEAAGGPSVFLFPPKPKDTLMISRTPEVTCVVVDVSHEDPEVKFNWYVDGVEVHNAKTKPREEQYNSTYRVVSVLTVLHQDWLNGKEYKCKVSNKALPAPIEKTISKAKGQPREPQVYTLPPSREEMTKNQVSLTCLVKGFYPSDIAVEWESNGQPENNYDTTPPVLDSDGSFFLYSDLTVDKSRWQQGNVFSCSVMHEALHNHYTQKSLSLSPGK
EC50 Cytolysis (ng/mL), -MMP2; TDCC of SKOV-3 cells with pan T cells [1]: 4.41 ng/mL

B2: CD3ε(1-27)-MMP-2csV1-aCD3-aHER2-Xbody, digested with MMP-2 (bispecific antibody)
chain 1: not shown
chain 2: IAGQEVQLVESGGGLVQPGGSLKLSCAASGFTFNSYAMNWVRQAPGKGLEWVARIRSKYNNYATYYADSVKGRFTISRDDSKNTAYLQMNNLKTEDTAVYYCVRHGNFGNSYVSWWAYWGQGTLVTVSSGGGGSGGGGSELVMTQTPSSLSASLGDRVTISCRASQDISNYLNWYQQKPDGTVKLLIYYTSRLHSGVPSRFSGSGSGTDYSLTISNLEQEDIATYFCQQGNTLPLTFGAGTKLEIKASTKGPSVFPLAPCSRSTSESTAALGCLVKDYFPEPVTVSWNSGALTSGVHTFPAVLQSSGLYSLSSVVTVPSSNFGTQTYTCNVDHKPSNTKVDKTVGGGGSAAAEPKSSDKTHTCPPCPAPEAAGGPSVFLFPPKPKDTLMISRTPEVTCVVVDVSHEDPEVKFNWYVDGVEVHNAKTKPREEQYNSTYRVVSVLTVLHQDWLNGKEYKCKVSNKALPAPIEKTISKAKGQPREPQVYTLPPSREEMTKNQVSLTCLVKGFYPSDIAVEWESNGQPENNYDTTPPVLDSDGSFFLYSDLTVDKSRWQQGNVFSCSVMHEALHNHYTQKSLSLSPGK
EC50 Cytolysis (ng/mL), +MMP2; TDCC of SKOV-3 cells with pan T cells [1]: 0.347 ng/mL

B3: CD3ε(1-27)-MMP-2cs-aCD3-aHER2-BiFc (bispecific antibody)
chain 1: not shown
chain 2: QDGNEEMGGITQTPYKVSISGTTVILTGPLGIAGQAAAEPKSSDKTHTCPPCPAPEAAGGPSVFLFPPKPKDTLMISRTPEVTCVVVDVSHEDPEVKFNWYVDGVEVHNAKTKPREEQYNSTYRVVSVLTVLHQDWLNGKEYKCKVSNKALPAPIEKTISKAKGQPREPQVYTLPPSREEMTKNQVSLTCLVKGFYPSDIAVEWESNGQPENNYDTTPPVLDSDGSFFLYSDLTVDKSRWQQGNVFSCSVMHEALHNHYTQKSLSLSPGK
notes: Tested undigested, with the MMP2 cleavage site intact; also called CD3ε(1-27)-MMP-cs-aCD3-aHER2-BiFc
binding result [2]: no binding

B4: CD3ε(1-27)-aCD3-aHER2-BiFc (bispecific antibody)
chain 1: not shown
chain 2: QDGNEEMGGITQTPYKVSISGTTVILTGGGGSGGGGSGGGGSAAAEPKSSDKTHTCPPCPAPEAAGGPSVFLFPPKPKDTLMISRTPEVTCVVVDVSHEDPEVKFNWYVDGVEVHNAKTKPREEQYNSTYRVVSVLTVLHQDWLNGKEYKCKVSNKALPAPIEKTISKAKGQPREPQVYTLPPSREEMTKNQVSLTCLVKGFYPSDIAVEWESNGQPENNYDTTPPVLDSDGSFFLYSDLTVDKSRWQQGNVFSCSVMHEALHNHYTQKSLSLSPGK
notes: Non-cleavable linker between the CD3ε(1-27) fragment and the Fc
binding result [2]: no binding
